The values that follow come from publication PMC3522304.

In this experiment the target is hematopoietic form of CD44 (CD44-H) fused to CFP or YFP (human) (UniProt P16070). The experiment is described as follows: FRET or BRET.

On to “hematopoietic form of CD44 (CD44-H) fused to CFP or YFP (from UniProt P16070-12 21-361) (receptor)”, for which the FRET efficiency (E) with nHA followed by oHA is -15.3%.
